Reference: US20130028925A1

Biological target: HSV-2 glycoprotein E (gE2) as expressed by wild-type HSV-2 strain 2.12 (infected Cos cells; virion envelope) (Herpes Simplex Virus-2) (UniProt P89475)
Assay: rosetting of IgG-coated sheep red blood cells on Cos cells infected with HSV-2 at MOI 2, 12 h; uninfected cells and gE2-deletion virus formed none

Chain of UniProt P89475 (P89475 21-545 limits assumed): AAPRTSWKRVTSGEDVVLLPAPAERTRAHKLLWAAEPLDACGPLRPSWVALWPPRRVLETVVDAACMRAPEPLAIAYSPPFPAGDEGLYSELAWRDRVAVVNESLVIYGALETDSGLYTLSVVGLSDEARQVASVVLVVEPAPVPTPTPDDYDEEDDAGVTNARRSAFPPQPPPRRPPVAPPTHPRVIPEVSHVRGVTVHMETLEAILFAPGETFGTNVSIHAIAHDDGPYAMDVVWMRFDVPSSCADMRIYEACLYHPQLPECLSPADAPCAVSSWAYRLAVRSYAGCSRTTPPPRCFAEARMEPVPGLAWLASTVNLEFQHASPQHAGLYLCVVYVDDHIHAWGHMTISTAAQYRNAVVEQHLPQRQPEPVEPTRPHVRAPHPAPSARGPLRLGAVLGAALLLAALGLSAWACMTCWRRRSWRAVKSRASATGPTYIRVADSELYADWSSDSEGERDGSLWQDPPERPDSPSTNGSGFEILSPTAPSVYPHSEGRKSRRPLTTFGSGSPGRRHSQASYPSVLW

Substance: rabbit anti-sheep IgG on sheep red blood cells (IgG-coated red blood cells) (antibody)
- percent of infected cells forming rosettes: 36%
